Test results: paper PMC1635299

What was measured:
Msx2 = Msx2 (UniProt Q03358 1-267); test: EMSA
Dlx2 = Dlx2 (UniProt P40764 1-332); test: EMSA
Sequence of Dlx2 (P40764 whole entry): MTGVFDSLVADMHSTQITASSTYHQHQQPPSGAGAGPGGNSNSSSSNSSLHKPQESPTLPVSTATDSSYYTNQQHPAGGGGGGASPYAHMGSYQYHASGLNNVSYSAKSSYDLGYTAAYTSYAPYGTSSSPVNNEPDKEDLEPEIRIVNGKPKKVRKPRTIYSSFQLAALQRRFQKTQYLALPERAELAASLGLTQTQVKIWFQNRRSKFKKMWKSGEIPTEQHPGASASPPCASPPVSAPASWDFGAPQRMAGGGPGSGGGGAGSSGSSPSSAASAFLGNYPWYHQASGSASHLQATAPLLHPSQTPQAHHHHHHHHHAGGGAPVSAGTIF

Sequence of Msx2 (Q03358 whole entry): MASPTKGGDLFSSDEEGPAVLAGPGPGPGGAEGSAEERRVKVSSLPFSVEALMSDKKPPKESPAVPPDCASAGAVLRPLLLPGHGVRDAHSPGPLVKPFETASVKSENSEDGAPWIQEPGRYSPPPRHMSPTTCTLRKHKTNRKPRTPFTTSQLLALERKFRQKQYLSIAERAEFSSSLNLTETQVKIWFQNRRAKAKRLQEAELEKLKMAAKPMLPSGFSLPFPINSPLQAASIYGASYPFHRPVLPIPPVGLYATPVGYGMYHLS

B1: Msx2 promoter Dlx2 site probe (dsDNA)
DNA 1: GATCCGGGTAGAGATTAGTTGAATATCCCTTGGGGATC
DNA 2: GATCCCCAAGGGATATTCAACTAATCTCTACCCGGATC
binding result (Msx2): binds
binding result (Dlx2): binds
